Patent US20140044644A1 (UNIVERSITY OF ZURICH, published 2014)

Experiments:
[1] = molecular target: T1, ankG in human brain homogenate (human, UniProt Q12955 1-4377, limits assumed); experiment: co-immunoprecipitation (ankG immunoprecipitate) from human AD hippocampus, Western blot
T1 construct: Endogenous protein in co-immunoprecipitation; also called ankG (human frontal cortex, hippocampus, AD hippocampus)
Source text: FIG. 6: AnkG interacts directly with APP in the brain [0020] (a) AnkG and APP immunoprecipitates from human frontal cortex were immunoblotted with specific antibodies against ankG, APP and ankB. Immunoprecipitates with non-immune IgG served as a negative control. Note that APP co-immunoprecipitated with ankG and vice versa. Human brain homogenate (C) was used as positive control. (b) AnkG immunoprecipitates were obtained from arcAbeta (TG), non-transgenic (NTG) littermates and APP deficient (−/−) mouse brains. Note that APP, but not ankB, co-immunoprecipitated with ankG. Mouse brain homogenate (C) was used as positive control. (c) Primary rat hippocampal cultures were stained with antibodies against the C-terminal portion of APP (green) and with antibodies against ankG (red). Note the presence of both ankG and APP in the AIS. Scale bar=10 μm (upper panels) and Scale bar=30 μm (lower panels). […] AnkG binding to BSA-coated wells (2 mg/ml) served as negative control. Mean values (OD₄₅₀)±SEM are shown (n=6). (e) AnkG and APP immunoprecipitates from human AD hippocampus were immunoblotted with specific antibodies against APP and Caspr and L1. Immunoprecipitates with non-immune IgG served as a negative control. As already shown in (a) APP co-immunoprecipitated with ankG. Note the absence of Caspr and L1 from the immunoprecipitates. AD hippocampus homogenate (+) was used as positive control. […]

[2] = molecular target: T2, Aβ42 (synthetic, fibrillar) (UniProt P05067 672-713); experiment: ELISA, Aβ42 coated, rat recombinant ankG in solution
T2 construct: domain: Aβ42; also called fibrillar Aβ42; Aβ42 peptide
T2 sequence (P05067 672-713 limits assumed): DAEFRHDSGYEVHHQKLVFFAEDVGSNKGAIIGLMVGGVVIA

[3] = molecular target: T3, Aβ40 (synthetic, fibrillar) (UniProt P05067 672-711); experiment: ELISA, Aβ40 coated, rat recombinant ankG in solution
T3 construct: domain: Aβ40; also called fibrillar Aβ40; Aβ40 peptide
T3 sequence (P05067 672-711 limits assumed): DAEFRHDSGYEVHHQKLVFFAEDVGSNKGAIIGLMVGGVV

T1 sequence (Q12955 whole entry): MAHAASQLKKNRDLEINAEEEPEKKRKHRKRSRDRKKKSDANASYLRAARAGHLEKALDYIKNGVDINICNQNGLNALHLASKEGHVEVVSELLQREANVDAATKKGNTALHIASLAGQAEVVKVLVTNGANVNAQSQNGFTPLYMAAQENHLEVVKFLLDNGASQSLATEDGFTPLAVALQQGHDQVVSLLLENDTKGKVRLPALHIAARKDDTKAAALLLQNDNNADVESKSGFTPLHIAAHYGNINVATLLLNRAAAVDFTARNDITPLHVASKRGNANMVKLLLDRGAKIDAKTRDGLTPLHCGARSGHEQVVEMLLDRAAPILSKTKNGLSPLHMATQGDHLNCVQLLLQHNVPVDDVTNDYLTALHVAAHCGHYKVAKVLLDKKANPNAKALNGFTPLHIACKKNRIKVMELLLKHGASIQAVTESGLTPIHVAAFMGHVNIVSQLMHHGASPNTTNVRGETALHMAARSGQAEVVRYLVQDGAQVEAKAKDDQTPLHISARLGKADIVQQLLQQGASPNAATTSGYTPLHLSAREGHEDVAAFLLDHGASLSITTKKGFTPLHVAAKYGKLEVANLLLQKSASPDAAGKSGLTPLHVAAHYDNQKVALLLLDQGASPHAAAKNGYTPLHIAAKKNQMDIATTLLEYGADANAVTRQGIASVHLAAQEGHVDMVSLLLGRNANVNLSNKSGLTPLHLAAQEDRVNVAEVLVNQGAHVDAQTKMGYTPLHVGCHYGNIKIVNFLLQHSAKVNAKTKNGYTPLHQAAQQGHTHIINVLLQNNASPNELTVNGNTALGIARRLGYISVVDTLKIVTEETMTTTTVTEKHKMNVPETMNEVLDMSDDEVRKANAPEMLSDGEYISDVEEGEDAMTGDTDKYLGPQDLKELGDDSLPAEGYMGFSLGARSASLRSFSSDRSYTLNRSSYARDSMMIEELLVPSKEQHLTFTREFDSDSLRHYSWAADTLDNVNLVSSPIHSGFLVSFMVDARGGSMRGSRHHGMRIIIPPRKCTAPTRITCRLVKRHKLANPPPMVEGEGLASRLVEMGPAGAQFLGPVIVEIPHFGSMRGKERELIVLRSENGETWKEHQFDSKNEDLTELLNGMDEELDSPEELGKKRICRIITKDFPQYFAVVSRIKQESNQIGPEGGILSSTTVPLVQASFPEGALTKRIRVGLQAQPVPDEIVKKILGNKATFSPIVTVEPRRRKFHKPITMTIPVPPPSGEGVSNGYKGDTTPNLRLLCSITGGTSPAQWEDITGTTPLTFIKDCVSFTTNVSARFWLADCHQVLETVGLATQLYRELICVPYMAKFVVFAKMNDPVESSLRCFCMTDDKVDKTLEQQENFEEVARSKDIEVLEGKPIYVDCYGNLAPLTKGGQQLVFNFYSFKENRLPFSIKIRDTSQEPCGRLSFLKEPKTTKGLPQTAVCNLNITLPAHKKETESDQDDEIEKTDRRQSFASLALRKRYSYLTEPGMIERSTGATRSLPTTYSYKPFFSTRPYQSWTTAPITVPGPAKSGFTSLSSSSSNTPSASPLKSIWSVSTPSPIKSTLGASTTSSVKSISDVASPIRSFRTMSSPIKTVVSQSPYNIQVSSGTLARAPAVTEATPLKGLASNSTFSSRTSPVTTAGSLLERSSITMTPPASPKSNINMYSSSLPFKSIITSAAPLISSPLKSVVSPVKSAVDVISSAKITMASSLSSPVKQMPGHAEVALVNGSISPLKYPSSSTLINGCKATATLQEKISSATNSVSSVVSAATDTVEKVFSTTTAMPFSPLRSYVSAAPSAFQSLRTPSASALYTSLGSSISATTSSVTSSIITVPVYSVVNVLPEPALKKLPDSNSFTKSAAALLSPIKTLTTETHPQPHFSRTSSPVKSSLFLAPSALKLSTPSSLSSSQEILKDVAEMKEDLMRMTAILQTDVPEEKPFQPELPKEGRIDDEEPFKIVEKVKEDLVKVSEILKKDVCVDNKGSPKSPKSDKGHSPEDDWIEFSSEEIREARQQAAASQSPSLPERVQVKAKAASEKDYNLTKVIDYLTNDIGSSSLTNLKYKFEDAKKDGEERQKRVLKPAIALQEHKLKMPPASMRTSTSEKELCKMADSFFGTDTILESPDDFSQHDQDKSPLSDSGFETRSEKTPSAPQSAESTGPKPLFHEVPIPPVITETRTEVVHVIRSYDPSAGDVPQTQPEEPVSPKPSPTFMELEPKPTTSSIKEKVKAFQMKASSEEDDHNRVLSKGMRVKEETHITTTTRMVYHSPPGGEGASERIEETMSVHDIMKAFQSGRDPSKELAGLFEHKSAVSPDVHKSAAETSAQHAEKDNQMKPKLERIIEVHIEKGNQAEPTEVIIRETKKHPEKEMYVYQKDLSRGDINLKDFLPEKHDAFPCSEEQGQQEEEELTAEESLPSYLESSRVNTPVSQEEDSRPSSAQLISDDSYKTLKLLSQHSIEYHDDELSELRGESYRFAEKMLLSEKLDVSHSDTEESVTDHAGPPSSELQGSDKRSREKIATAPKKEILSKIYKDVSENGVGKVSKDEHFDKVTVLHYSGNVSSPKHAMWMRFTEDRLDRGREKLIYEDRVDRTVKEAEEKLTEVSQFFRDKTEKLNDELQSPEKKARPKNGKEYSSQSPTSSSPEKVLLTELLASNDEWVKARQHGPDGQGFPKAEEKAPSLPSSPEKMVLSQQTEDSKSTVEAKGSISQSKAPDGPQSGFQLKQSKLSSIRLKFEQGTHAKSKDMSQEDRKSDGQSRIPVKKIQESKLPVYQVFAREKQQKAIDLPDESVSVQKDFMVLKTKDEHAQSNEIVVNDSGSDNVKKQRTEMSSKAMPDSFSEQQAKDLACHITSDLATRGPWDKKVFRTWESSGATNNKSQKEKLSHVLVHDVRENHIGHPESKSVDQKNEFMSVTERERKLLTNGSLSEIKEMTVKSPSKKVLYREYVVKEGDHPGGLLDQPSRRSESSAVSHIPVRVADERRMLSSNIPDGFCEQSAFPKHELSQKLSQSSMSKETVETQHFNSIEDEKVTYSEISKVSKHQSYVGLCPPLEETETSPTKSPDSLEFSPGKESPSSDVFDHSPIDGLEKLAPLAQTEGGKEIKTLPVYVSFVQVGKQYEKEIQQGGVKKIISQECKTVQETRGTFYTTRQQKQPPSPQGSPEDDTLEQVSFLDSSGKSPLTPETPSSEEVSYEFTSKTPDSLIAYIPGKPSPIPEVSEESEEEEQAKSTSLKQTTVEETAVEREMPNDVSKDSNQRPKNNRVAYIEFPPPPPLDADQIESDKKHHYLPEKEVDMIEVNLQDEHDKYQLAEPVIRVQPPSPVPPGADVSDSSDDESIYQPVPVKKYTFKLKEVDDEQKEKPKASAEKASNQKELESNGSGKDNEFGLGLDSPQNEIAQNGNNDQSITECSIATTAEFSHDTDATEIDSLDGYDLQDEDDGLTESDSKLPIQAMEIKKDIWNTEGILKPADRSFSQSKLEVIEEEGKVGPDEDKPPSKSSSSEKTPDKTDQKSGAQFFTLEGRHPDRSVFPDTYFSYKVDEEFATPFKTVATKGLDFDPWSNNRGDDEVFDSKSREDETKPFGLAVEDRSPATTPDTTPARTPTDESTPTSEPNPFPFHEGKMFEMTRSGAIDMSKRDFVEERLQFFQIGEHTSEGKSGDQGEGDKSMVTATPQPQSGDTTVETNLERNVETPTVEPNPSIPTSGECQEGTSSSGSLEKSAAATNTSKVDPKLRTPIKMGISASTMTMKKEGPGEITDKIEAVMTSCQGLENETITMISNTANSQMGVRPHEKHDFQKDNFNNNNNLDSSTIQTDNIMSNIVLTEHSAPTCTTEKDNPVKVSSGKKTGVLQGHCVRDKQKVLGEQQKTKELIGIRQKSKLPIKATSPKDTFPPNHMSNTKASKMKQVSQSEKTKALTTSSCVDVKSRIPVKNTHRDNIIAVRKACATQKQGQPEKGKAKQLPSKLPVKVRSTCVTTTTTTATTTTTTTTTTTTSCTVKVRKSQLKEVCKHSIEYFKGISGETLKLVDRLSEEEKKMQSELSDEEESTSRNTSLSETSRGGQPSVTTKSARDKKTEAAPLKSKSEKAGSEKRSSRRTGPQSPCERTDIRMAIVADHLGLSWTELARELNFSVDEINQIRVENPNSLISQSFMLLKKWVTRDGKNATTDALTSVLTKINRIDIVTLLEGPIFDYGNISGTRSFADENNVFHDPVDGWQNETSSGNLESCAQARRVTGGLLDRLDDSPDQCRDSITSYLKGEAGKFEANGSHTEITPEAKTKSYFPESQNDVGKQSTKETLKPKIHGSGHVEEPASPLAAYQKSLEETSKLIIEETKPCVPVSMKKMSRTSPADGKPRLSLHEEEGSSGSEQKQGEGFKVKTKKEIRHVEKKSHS

| binding result [1] | binding result [2] | binding result [3] | Binder |
| --- | --- | --- | --- |
| no binding | – | – | Caspr in human AD hippocampus homogenate (other, UniProt P78357 20-1384, looked up) WGYYGCDEELVGPLYARSLGASSYYSLLTAPRFARLHGISGWSPRIGDPNPWLQIDLMKKHRIRAVATQGSFNSWDWVTRYMLLYGDRVDSWTPFYQRGHNSTFFGNVNESAVVRHDLHFHFTARYIRIVPLAWNPRGKIGLRLGLYGCPYKADILYFDGDDAISYRFPRGVSRSLWDVFAFSFKTEEKDGLLLHAEGAQGDYVTLELEGAHLLLHMSLGSSPIQPRPGHTTVSAGGVLNDQHWHYVRVDRFGRDVNFTLDGYVQRFILNGDFERLNLDTEMFIGGLVGAARKNLAYRHNFRGCIENVIFNRVNIADLAVRRHSRITFEGKVAFRCLDPVPHPINFGGPHNFVQVPGFPRRGRLAVSFRFRTWDLTGLLLFSRLGDGLGHVELTLSEGQVNVSIAQSGRKKLQFAAGYRLNDGFWHEVNFVAQENHAVISIDDVEGAEVRVSYPLLIRTGTSYFFGGCPKPASRWDCHSNQTAFHGCMELLKVDGQLVNLTLVEGRRLGFYAEVLFDTCGITDRCSPNMCEHDGRCYQSWDDFICYCELTGYKGETCHTPLYKESCEAYRLSGKTSGNFTIDPDGSGPLKPFVVYCDIRENRAWTVVRHDRLWTTRVTGSSMERPFLGAIQYWNASWEEVSALANASQHCEQWIEFSCYNSRLLNTAGGYPYSFWIGRNEEQHFYWGGSQPGIQRCACGLDRSCVDPALYCNCDADQPQWRTDKGLLTFVDHLPVTQVVIGDTNRSTSEAQFFLRPLRCYGDRNSWNTISFHTGAALRFPPIRANHSLDVSFYFRTSAPSGVFLENMGGPYCQWRRPYVRVELNTSRDVVFAFDVGNGDENLTVHSDDFEFNDDEWHLVRAEINVKQARLRVDHRPWVLRPMPLQTYIWMEYDQPLYVGSAELKRRPFVGCLRAMRLNGVTLNLEGRANASEGTSPNCTGHCAHPRLPCFHGGRCVERYSYYTCDCDLTAFDGPYCNHDIGGFFEPGTWMRYNLQSALRSAAREFSHMLSRPVPGYEPGYIPGYDTPGYVPGYHGPGYRLPDYPRPGRPVPGYRGPVYNVTGEEVSFSFSTSSAPAVLLYVSSFVRDYMAVLIKDDGTLQLRYQLGTSPYVYQLTTRPVTDGQPHSINITRVYRNLFIQVDYFPLTEQKFSLLVDSQLDSPKALYLGRVMETGVIDPEIQRYNTPGFSGCLSGVRFNNVAPLKTHFRTPRPMTAELAEALRVQGELSESNCGAMPRLVSEVPPELDPWYLPPDFPYYHDEGWVAILLGFLVAFLLLGLVGMLVLFYLQNHRYKGSYHTNEPKAAHEYHPGSKPPLPTSGPAQVPTPTAAPNQAPASAPAPAPTPAPAPGPRDQNLPQILEESRSE |
| – | no binding (tested: ankG 0-2.5 µg/ml) | no binding (tested: ankG 0-2.5 µg/ml) | rat recombinant ankG (ankyrin G) (other, UniProt O70511-3 1-1806, looked up, An immunoreactive band of about 190 kDa is reported; also called purified ankG; recombinant ankG protein) MSEEAKEKTAKPAHRKRKGKKSDANASYLRAARAGHLEKALDYIKNGVDVNICNQNGLNALHLASKEGHVEVVSELLQREANVDAATKKGNTALHIASLAGQAEVVKVLVTNGANVNAQSQNGFTPLYMAAQENHLEVVRFLLDNGASQSLATEDGFTPLAVALQQGHDQVVSLLLENDTKGKVRLPALHIAARKDDTKAAALLLQNDTNADIESKSGFTPLHIAAHYGNINVATLLLNRAAAVDFTARNDITPLHVASKRGNANMVKLLLDRGAKIDAKTRDGLTPLHCGARSGHEQVVEMLLDRAAPILSKTKNGLSPLHMATQGDHLNCVQLLLQHNVPVDDVTNDYLTALHVAAHCGHYKVAKVLLDKKANPNAKALNGFTPLHIACKKNRIRVMELLLKHGASIQAVTESGLTPIHVAAFMGHVNIVSQLMHHGASPNTTNVRGETALHMAARSGQAEVVRYLVQDGAQVEAKAKDDQTPLHISARLGKADIVQQLLQQGASPNAATTSGYTPLHLSAREGHEDVAAFLLDHGASLSITTKKGFTPLHVAAKYGKLEVASLLLQKSASPDAAGKSGLTPLHVAAHYDNQKVALLLLDQGASPHAAAKNGYTPLHIAAKKNQMDIATSLLEYGADANAVTRQGIASVHLAAQEGHVDMVSLLLSRNANVNLSNKSGLTPLHLAAQEDRVNVAEVLVNQGAHVDAQTKMGYTPLHVGCHYGNIKIVNFLLQHSAKVNAKTKNGYTPLHQAAQQGHTHIINVLLQNNASPNELTVNGNTALAIARRLGYISVVDTLKVVTEEIMTTTTITEKHKMNVPETMNEVLDMSDDEGEDAITGDTDKYLGPQDLKELGDDSLPAEGYVGFSLGARSASPKISSDRSYTLNRSSYARDSMMIEELLVPSKEQHLPFTREFDSDSLRHYSWAADTLDNVNLVSSPVHSGFLVSFMVDARGGSMRGSRHHGMRIIIPPRKCTAPTRITCRLVKRHKLANPPPMVEGEGLASRLVEMGPAGAQFLGPVIVEIPHFGSMRGKERELIVLRSENGETWKEHQFDSKNEDLSELLNGMDEELDSPEELGTKRICRIITKDFPQYFAVVSRIKQESNQIGPEGGILSSTTVPLVQASFPEGALTKRIRVGLQAQPVPEETVKKILGNKATFSPIVTVEPRRRKFHKPITMTIPVPPPSGEGVSNGYKGDTTPSLRLLCSITGGTSPAQWEDITGTTPLTFIKDCVSFTTNVSARFWLADCHQVLETVGLASQLYRELICVPYMAKFVVFAKTNDPVESSLRCFCMTDDRVDKTLEQQENFEEVARSKDIEVLEGKPIYVDCYGNLAPLTKGGQQLVFNFYSFKENRLPFSIKVRDTSQEPCGRLSFLKEPKTTKGLPQTAVCNLNITLPAHKKAEKADRRQSFTSLALRPQSPCERTDIRMAIVADHLGLSWTELARELNFSVDEINQIRVENPNSLISQSFMLLKKWVTRDGKNATTDALTSVLTKINRIDIVTLLEGPIFDYGNISGTRSFADENNVFHDPVDGWQNETPSGSLESPAQARRITGGLLDRLDDSSDQVRDPITSYLTGEAGKFEANGNHAEVIPEAKAKAYFPESQNDIGKQSIKENLKPKTHGCGRAEEPVSPLTAYQKSLEETSKLVIEDAPKPCVPVGMKKMTRTPADGKARLNLQEEEGSARSEPKQVKSPGEAFTRMTACCYKDLRHSESDSSSEEERRVTTRVIRRRVIIKGEEAKTIPGESVTEEQFTDEEGNLITRKITRKVIRRIGPQERKQDDVQGEGYKVKTKKEIRNVEKKAH |
